Laboratory results reported in publication PMC4747905, “Structure of BRCA1-BRCT/Abraxas Complex Reveals Phosphorylation-Dependent BRCT Dimerization at DNA Damage Sites” (Molecular Cell, 2016).
Square brackets hold non-standard residues; d marks the D form. Ends that are not written are not given here. pS = N[C@@H](COP(=O)(O)O)C(=O)O

B1: Abraxas single phosphorylated peptide Ab1p (peptide)
peptide: GFGEYSR[pS]PTF
notes: Abraxas C-terminal peptide, printed as GFGEYSRpSPTF; source: synthesized peptide
B2: Bach1 phosphopeptide (peptide)
chain: ISRST[pS]PTFNKQTK
B3: CtIP phosphopeptide (peptide)
chain: PTRVS[pS]PVFGAT
B4: BRCT-Ab2p_short complex (complex)
chain: VNKRMSMVVSGLTPEEFMLVYKFARKHHITLTNLITEETTHVVMKTDAEFVCERTLKYFLGIAGGKWVVSYFWVTQSIKERKMLNEHDFEVRGDVVNGRNHQGPKRARESQDRKIFRGLEICCYGPFTNMPTDQLEWMVQLCGASVVKELSSFTLGTGVHPIVVVQPDAWTEDNGFHAIGQMCEAPVVTREWVLDSVALYQCQELDTYLIPQIP
peptide: YSRSPTF
modifications: phosphoserine at S404 and S406
notes: as m1: BRCA1 tandem BRCT domains; limits in the Supplemental Information; as m5: Abraxas C-terminal peptide YpSRpSPTF; the 1:1 unit of m1 and m5; source: purified BRCT mixed with peptide at 1:3 molar ratio
B5: Abraxas peptide Ab1p (S404D) (peptide, UniProt Q6UWZ7 399-409, looked up)
peptide: GFGEYDR[pS]PTF
notes: Abraxas C-terminal peptide, as Ab1p (GFGEYSRpSPTF) with the phosphomimetic S404D
B6: Abraxas peptide Ab1p (S404P) (peptide, UniProt Q6UWZ7 399-409, looked up)
peptide: GFGEYPR[pS]PTF
notes: Abraxas C-terminal peptide, as Ab1p (GFGEYSRpSPTF) with S404P
B7: Abraxas peptide Ab2p (F400D) (peptide, UniProt Q6UWZ7 399-409, looked up)
peptide: GDGEY[pS]R[pS]PTF
notes: Abraxas C-terminal peptide, as Ab2p (GFGEYpSRpSPTF) with F400D
B8: Abraxas peptide Ab2p(E402R) (peptide, UniProt Q6UWZ7 399-409, looked up)
peptide: GFGRY[pS]R[pS]PTF
notes: Abraxas C-terminal peptide, as Ab2p (GFGEYpSRpSPTF) with E402R
B9: Abraxas peptide Ab2p(Y403A) (peptide, UniProt Q6UWZ7 399-409, looked up)
peptide: GFGEA[pS]R[pS]PTF
notes: Abraxas C-terminal peptide, as Ab2p (GFGEYpSRpSPTF) with Y403A
B10: Abraxas double phosphorylated peptide Ab2p_short (peptide)
peptide: Y[pS]R[pS]PTF
notes: Abraxas C-terminal peptide without GFGE, printed as YpSRpSPTF; source: synthesized peptide
B11: Abraxas peptide Ab2p(Y403A_short) (peptide, UniProt Q6UWZ7 403-409, looked up)
peptide: A[pS]R[pS]PTF
notes: also called Abraxas(Y403A)_short

The binders below were run against T1, BRCA1 BRCT domains (UniProt P38398 1646-1859) (assay: native MS; peak fractions from gel filtration, 15 μM protein, 300 mM ammonium acetate pH 7.6, nano-electrospray). Settings: both partners purified.
T1 construct: BRCA1 tandem BRCT domains (BRCT1 and BRCT2); construct limits are in the Supplemental Information; also called BRCT domain only; source: purified; construction and purification are described in the Supplemental Information

Binder | stoichiometry N
B1 | 1
B2 | 1
B3 | 1

Target: the molecule itself
Experiment: SEC; BRCT and peptide mixed 1:3 (molar), final 1 mg/ml (about 40 μM), Superdex 75 10/300, Buffer A, 0.5 ml/min
Settings: not given

Binder | binding result
B4 | binds

What follows are binders tested against T1, BRCA1 BRCT domains in the same assay as above. Settings: both partners purified.

Binder | binding result
B5 | binds
B6 | binds
B7 | binds
B8 | binds
B9 | binds
B10 | binds
B11 | binds
